Reference: US20060024786

Test system: full length human N-WASP (Myc-N-WASP-TAP)

N_GST_tev_Rac1 GTP (bacterial GST tagged Rac1 protein)
activation of FL N-WASP (barbed ends, actin polymerization assay): Rac1 can activate FL N-WASP | activation of FL N-WASP against Cdc42: Rac1 was a more potent N-WASP activator than Cdc42 in the absence of PIP2 vesicles | dose dependence of barbed end concentration: there is a bell shaped dose dependence for Nck1, Nck2 and Rac1
